Laboratory results: the supplement of paper PMC11246515
± gives the standard deviation of the averaged measurements.

Experiment: total protein half-life in vivo (active degradation + dilution); higher = more stable protein
[1] = E. coli NCM3722 delta-clpP delta-lon delta-hslV, growth: N-lim chemostat, doubling time 6 h
[2] = E. coli NCM3722 delta-clpP, growth: N-lim chemostat, doubling time 6 h
[3] = E. coli NCM3722 delta-hslV, growth: N-lim chemostat, doubling time 6 h
[4] = E. coli NCM3722 delta-lon, growth: N-lim chemostat, doubling time 6 h
[5] = E. coli NCM3722 delta-smpB, growth: N-lim chemostat, doubling time 6 h
[6] = wild type E. coli NCM3722, growth: C-lim chemostat, doubling time 3 h
[7] = wild type E. coli NCM3722, growth: C-lim chemostat, doubling time 6 h
[8] = wild type E. coli NCM3722, growth: C-lim chemostat, doubling time 12 h
[9] = wild type E. coli NCM3722, growth: N-lim chemostat, doubling time 6 h
[10] = wild type E. coli NCM3722, growth: N-lim chemostat, doubling time 12 h
[11] = wild type E. coli NCM3722, growth: P-lim chemostat, doubling time 6 h
[12] = wild type E. coli NCM3722, growth: P-lim chemostat, doubling time 12 h

| Sequence | total protein half-life in vivo [1] [h] | total protein half-life in vivo [2] [h] | total protein half-life in vivo [3] [h] | total protein half-life in vivo [4] [h] | total protein half-life in vivo [5] [h] | total protein half-life in vivo [6] [h] | total protein half-life in vivo [7] [h] | total protein half-life in vivo [8] [h] | total protein half-life in vivo [9] [h] | total protein half-life in vivo [10] [h] | total protein half-life in vivo [11] [h] | total protein half-life in vivo [12] [h] |
| --- | --- | --- | --- | --- | --- | --- | --- | --- | --- | --- | --- | --- |
| MMEILRGSPALSAFRINKLLARFQAARLPVHNIYAEYVHFADLNAPLNDDEHAQLERLLKYGPALASHAPQGKLLLVTPRPGTISPWSSKATDIAHNCGLQQVNRLERGVAYYIEAGTLTNEQWQQVTAELHDRMMETVFFALDDAEQLFAHHQPTPVTSVDLLGQGRQALIDANLRLGLALAEDEIDYLQDAFTKLGRNPNDIELYMFAQANSEHCRHKIFNADWVIDGEQQPKSLFKMIKNTFETTPDHVLSAYKDNAAVMEGSEVGRYFADHETGRYDFHQEPAHILMKVETHNHPTAISPWPGAATGSGGEIRDEGATGRGAKPKAGLVGFSVSNLRIPGFEQPWEEDFGKPERIVTALDIMTEGPLGGAAFNNEFGRPALNGYFRTYEEKVNSHNGEELRGYHKPIMLAGGIGNIRADHVQKGEINVGAKLVVLGGPAMNIGLGGGAASSMASGQSDADLDFASVQRDNPEMERRCQEVIDRCWQLGDANPILFIHDVGAGGLSNAMPELVSDGGRGGKFELREILSDEPGMSPLEIWCNESQERYVLAVAADQLPLFDELCKRERAPYAVIGEATEELHLSLHDRHFDNQPIDLPLDVLLGKTPKMTRDVQTLKAKGDALAREGITIADAVKRVLHLPTVAEKTFLVTIGDRSVTGMVARDQMVGPWQVPVANCAVTTASLDSYYGEAMAIGERAPVALLDFAASARLAVGEALTNIAATQIGDIKRIKLSANWMAAAGHPGEDAGLYEAVKAVGEELCPALGLTIPVGKDSMSMKTRWQEGNEEREMTSPLSLVISAFARVEDVRHTITPQLSTEDNALLLIDLGKGNNALGATALAQVYRQLGDKPADVRDVAQLKGFYDAIQALVAQRKLLAYHDRSDGGLLVTLAEMAFAGHCGIDADIATLGDDRLAALFNEELGAVIQVRAADREAVESVLAQHGLADCVHYVGQAVSGDRFVITANGQTVFSESRTTLRVWWAETTWQMQRLRDNPECADQEHQAKSNDADPGLNVKLSFDINEDVAAPYIATGARPKVAVLREQGVNSHVEMAAAFHRAGFDAIDVHMSDLLTGRTGLEDFHALVACGGFSYGDVLGAGEGWAKSILFNDRVRDEFATFFHRPQTLALGVCNGCQMMSNLRELIPGSELWPRFVRNTSDRFEARFSLVEVTQSPSLLLQGMVGSQMPIAVSHGEGRVEVRDAAHLAALESKGLVALRYVDNFGKVTETYPANPNGSPNGITAVTTESGRVTIMMPHPERVFRTVSNSWHPENWGEDGPWMRIFRNARKQLG | 5.77 ± 0.51 | 4.8 ± 0.37 | 4.73 ± 0.32 | 5.07 ± 0.55 | 4.63 ± 0.36 | 3.03 ± 0.051 | 5.98 ± 0.39 | 10.4 ± 0.62 | 4.72 ± 0.081 | 8.05 ± 0.21 | 6.31 ± 0.075 | 11.5 ± 0.43 |
| MSKIFEDNSLTIGHTPLVRLNRIGNGRILAKVESRNPSFSVKCRIGANMIWDAEKRGVLKPGVELVEPTSGNTGIALAYVAAARGYKLTLTMPETMSIERRKLLKALGANLVLTEGAKGMKGAIQKAEEIVASNPEKYLLLQQFSNPANPEIHEKTTGPEIWEDTDGQVDVFIAGVGTGGTLTGVSRYIKGTKGKTDLISVAVEPTDSPVIAQALAGEEIKPGPHKIQGIGAGFIPANLDLKLVDKVIGITNEEAISTARRLMEEEGILAGISSGAAVAAALKLQEDESFTNKNIVVILPSSGERYLSTALFADLFTEKELQQ [P0ABK5] | 5.312 ± 0.029 | 5.14 ± 0.39 | 4.87 ± 0.096 | 5.03 ± 0.31 | 4.53 ± 0.22 | 3.45 ± 0.18 | 6.1 ± 0.7 | 11.8 ± 2.1 | 4.68 ± 0.36 | 8.22 ± 0.3 | 5.72 ± 0.34 | 13.1 ± 1.2 |
| MFENITAAPADPILGLADLFRADERPGKINLGIGVYKDETGKTPVLTSVKKAEQYLLENETTKNYLGIDGIPEFGRCTQELLFGKGSALINDKRARTAQTPGGTGALRVAADFLAKNTSVKRVWVSNPSWPNHKSVFNSAGLEVREYAYYDAENHTLDFDALINSLNEAQAGDVVLFHGCCHNPTGIDPTLEQWQTLAQLSVEKGWLPLFDFAYQGFARGLEEDAEGLRAFAAMHKELIVASSYSKNFGLYNERVGACTLVAADSETVDRAFSQMKAAIRANYSNPPAHGASVVATILSNDALRAIWEQELTDMRQRIQRMRQLFVNTLQEKGANRDFSFIIKQNGMFSFSGLTKEQVLRLREEFGVYAVASGRVNVAGMTPDNMAPLCEAIVAVL | 4.59 ± 0.58 | 4.02 ± 0.34 | 3.88 ± 0.059 | 4.44 ± 0.22 | 3.789 ± 0.034 | 3.16 ± 0.23 | 5.555 ± 0.041 | 10.29 ± 0.024 | 3.86 ± 0.14 | 5.97 ± 0.14 | 5.69 ± 0.19 | 11.84 ± 0.03 |
| MPFKPLVTAGIESLLNTFLYRSPALKTARSRLLGKVLRVEVKGFSTSLILVFSERQVDVLGEWAGDADCTVIAYASVLPKLRDRQQLTALIRSGELEVQGDIQVVQNFVALADLAEFDPAELLAPYTGDIAAEGISKAMRGGAKFLHHGIKRQQRYVAEAITEEWRMAPGPLEVAWFAEETAAVERAVDALTKRLEKLEAK [P0ADP7] | 5.27 ± 0.14 |  |  | 4.977 ± 0.043 | 4.88 ± 0.14 | 2.77 ± 0.21 | 4.84 ± 0.24 | 7.62 ± 0.27 | 4.76 ± 0.091 | 8.56 ± 0.1 | 4.93 ± 0.25 | 8.919 ± 0.012 |
| MAIIPKNYARLESGYREKALKIYPWVCGRCSREFVYSNLRELTVHHIDHDHTNNPEDGSNWELLCLYCHDHEHSKYTEADQYGTTVIAGEDAQKDVGEAKYNPFADLKAMMNKKK [P0AAQ2] | 4.15 ± 1.2 | 1.71 ± 0.098 | 1.5 ± 0.031 | 2.74 ± 0.48 | 1.63 ± 0.71 | 0.968 ± 0.29 | 1.73 | 2.42 | 1.97 | 1.54 | 1.18 | 3.1 ± 0.97 |
| MELKATTLGKRLAQHPYDRAVILNAGIKVSGDRHEYLIPFNQLLAIHCKRGLVWGELEFVLPDEKVVRLHGTEWGETQRFYHHLDAHWRRWSGEMSEIASGVLRQQLDLIATRTGENKWLTREQTSGVQQQIRQALSALPLPVNRLEEFDNCREAWRKCQAWLKDIESARLQHNQAYTEAMLTEYADFFRQVESSPLNPAQARAVVNGEHSLLVLAGAGSGKTSVLVARAGWLLARGEASPEQILLLAFGRKAAEEMDERIRERLHTEDITARTFHALALHIIQQGSKKVPIVSKLENDTAARHELFIAEWRKQCSEKKAQAKGWRQWLTEEMQWSVPEGNFWDDEKLQRRLASRLDRWVSLMRMHGGAQAEMIASAPEEIRDLFSKRIKLMAPLLKAWKGALKAENAVDFSGLIHQAIVILEKGRFISPWKHILVDEFQDISPQRAALLAALRKQNSQTTLFAVGDDWQAIYRFSGAQMSLTTAFHENFGEGERCDLDTTYRFNSRIGEVANRFIQQNPGQLKKPLNSLTNGDKKAVTLLDESQLDALLDKLSGYAKPEERILILARYHHMRPASLEKAATRWPKLQIDFMTIHASKGQQADYVIIVGLQEGSDGFPAAARESIMEEALLPPVEDFPDAEERRLMYVALTRARHRVWALFNKENPSPFVEILKNLDVPVARKP | 6.73 ± 0.37 | 5.42 ± 0.098 | 4.93 ± 0.55 | 5.31 ± 0.26 | 4.17 ± 0.1 | 2.66 ± 0.17 | 5.06 ± 0.43 | 8.95 ± 0.32 | 4.45 ± 0.033 | 7.69 ± 0.31 | 4.69 ± 0.16 | 9.53 ± 0.42 |
| MSTQLDPTQLAIEFLRRDQSNLSPAQYLKRLKQLELEFADLLTLSSAELKEEIYFAWRLGVH | 5.63 ± 0.47 | 3.08 ± 0.39 |  | 2.3 | 1.29 |  |  | 1.9 | 0.632 | 1.08 |  | 0.514 |
| MIKKTTEIDAILLNLNKAIDAHYQWLVSMFHSVVARDASKPEITDNHSYGLCQFGRWIDHLGPLDNDELPYVRLMDSAHQHMHNCGRELMLAIVENHWQDAHFDAFQEGLLSFTAALTDYKIYLLTIRSNMDVLTGLPGRRVLDESFDHQLRNAEPLNLYLMLLDIDRFKLVNDTYGHLIGDVVLRTLATYLASWTRDYETVYRYGGEEFIIIVKAANDEEACRAGVRICQLVDNHAITHSEGHINITVTAGVSRAFPEEPLDVVIGRADRAMYEGKQTGRNRCMFIDEQNVINRV |  |  |  |  | 1.44 |  |  |  |  | 3.5 |  |  |
| MNNNTTAPTYTLRGLQLIGWRDMQHALDYLFADGQLKQGTLVAINAEKMLTIEDNAEVRELINAAEFKYADGISVVRSVRKKYPQAQVSRVAGADLWEELMARAGKEGTPVFLVGGKPEVLAQTEAKLRNQWNVNIVGSQDGYFKPEQRQALFERIHASGAQIVTVAMGSPKQEIIMRDCRLVHPDALYMGVGGTYDVFTGHVKRAPKIWQTLGLEWLYRLLSQPSRIKRQLRLLRYLRWHYTGNL | 6.19 ± 0.52 | 6.04 ± 0.25 | 6.18 ± 0.083 | 7.03 ± 0.76 | 6.88 ± 0.092 | 3.045 ± 0.02 | 5.84 ± 0.15 | 12.2 ± 1.7 | 6.58 ± 0.62 | 12.6 ± 0.13 | 5.76 ± 0.52 | 13.4 ± 1.2 |
| MHVTAKPSSFQCNLKCDYCFYLEKESQFTHEKWMDDSTLKEFIKQYIAASGNQVYFTWQGGEPTLAGLDFFRKVIHYQQRYAGQKRIFNALQTNGILLNNEWCAFLKEHEFLVGISIDGPQELHDRYRRSNSGNGTFAKVIAAIERLKSYQVEFNTLTVINNVNVHYPLEVYHFLKSIGSKHMQFIELLETGTPNIDFSGHSENTFRIIDFSVPPTAYGKFMSTIFMQWVKNDVGEIFIRQFESFVSRFLGNGHTSCIFQESCKDNLVVESNGDIYECDHFVYPQYKIGNINKSELKTMNSVQLTAQKKRIPAKCQQCAYKPICNGGCPKHRITKVNNETVSYFCEGYKILFSTMVPYMNAMVELAKNRVPLYHIMDVAKQMENN |  |  |  |  |  | 1.12 ± 0.083 | 1.77 ± 0.19 | 2.03 |  |  |  |  |
